This data set relates to Escherichia coli TOP10. Nature of the data set: shrunken log2 fold change of peptide-encoding DNA abundance (4.5 h post-induction vs induction); higher = less antimicrobial activity (less host growth inhibition). To be noted: time post-induction: 4.5 h; library: site-saturation at positions 5, 18, 19, 20.
Consider RRIRKRPPRLPRPRPRPFGYPRP, for which the “shrunken log2 fold change” value is -0.0856. With RRIRTRPPRLPRPRPRPPPVPRP the figure was 0.652; with RRIRDRPPRLPRPRPRPNPVPRP, -0.41; with RRIRIRPPRLPRPRPRPGMLPRP, 0.0213. Consider RRIRPRPPRLPRPRPRPFLLPRP, for which the “shrunken log2 fold change” value is -0.516. To RRIRDRPPRLPRPRPRPFPYPRP belongs -0.136. With RRIRYRPPRLPRPRPRPGLTPRP the figure was -0.21; with RRIRCRPPRLPRPRPRPTGAPRP, 0.419. To RRIRWRPPRLPRPRPRPAHRPRP belongs 0.49; to RRIRPRPPRLPRPRPRPKAEPRP, 0.279; to RRIRCRPPRLPRPRPRPIKMPRP, -0.185.

As to RRIRERPPRLPRPRPRPNGCPRP, the “shrunken log2 fold change” value came out at 0.00429. With RRIRYRPPRLPRPRPRPEIIPRP, the “shrunken log2 fold change” value was -0.0841.

For the sequence RRIRARPPRLPRPRPRPVEGPRP, the “shrunken log2 fold change” value is 0.329. Consider RRIRDRPPRLPRPRPRPRRPPRP, for which the “shrunken log2 fold change” value turned out to be 0.652. For the sequence RRIRQRPPRLPRPRPRPQIEPRP, the “shrunken log2 fold change” value was -0.0133.

Turning to RRIRIRPPRLPRPRPRPQKMPRP, the “shrunken log2 fold change” value was -0.269. Consider RRIRPRPPRLPRPRPRPHQHPRP, for which the “shrunken log2 fold change” value was 2.05. To RRIRSRPPRLPRPRPRPEARPRP belongs 0.292; to RRIRCRPPRLPRPRPRPMLNPRP, -0.38; to RRIRQRPPRLPRPRPRPTMDPRP, 0.0884. To RRIRQRPPRLPRPRPRPSEDPRP belongs -0.0593; to RRIRFRPPRLPRPRPRPAMKPRP, -0.345; to RRIRLRPPRLPRPRPRPVRVPRP, 0.428.

Turning to RRIRSRPPRLPRPRPRPHAPPRP, the “shrunken log2 fold change” value came out at 0.27.

In the case of RRIRLRPPRLPRPRPRPLGEPRP, the “shrunken log2 fold change” value came out at 0.013. Turning to RRIRERPPRLPRPRPRPGNYPRP, the “shrunken log2 fold change” value was -0.264. Consider RRIRSRPPRLPRPRPRPWVHPRP, for which the “shrunken log2 fold change” value is -0.221. RRIRRRPPRLPRPRPRPGQEPRP: the “shrunken log2 fold change” value turned out to be 0.777.

For RRIRQRPPRLPRPRPRPVHEPRP, the “shrunken log2 fold change” value is 0.536. With RRIRYRPPRLPRPRPRPTWMPRP, the “shrunken log2 fold change” value was 0.0576. To RRIRHRPPRLPRPRPRPFDPPRP belongs -0.101; to RRIRGRPPRLPRPRPRPGNMPRP, -0.0382; to RRIRTRPPRLPRPRPRPCCTPRP, -0.0782. For the sequence RRIRERPPRLPRPRPRPQYAPRP, the “shrunken log2 fold change” value is -0.158. Take RRIRYRPPRLPRPRPRPTIWPRP: the “shrunken log2 fold change” value is -0.196. With RRIRIRPPRLPRPRPRPDMMPRP the figure was 0.0293.

For RRIRVRPPRLPRPRPRPYYWPRP, the “shrunken log2 fold change” value was -0.0974. With RRIRDRPPRLPRPRPRPVLEPRP the figure was 0.627; with RRIRERPPRLPRPRPRPHRDPRP, -0.063; with RRIRNRPPRLPRPRPRPKSHPRP, -0.253.

In the case of RRIRSRPPRLPRPRPRPLNDPRP, the “shrunken log2 fold change” value is -0.182. For RRIRERPPRLPRPRPRPRTYPRP, the “shrunken log2 fold change” value is -0.517. For RRIRYRPPRLPRPRPRPSETPRP, the “shrunken log2 fold change” value was -0.523.

As for RRIRIRPPRLPRPRPRPRGGPRP, the “shrunken log2 fold change” value is 0.217. Consider RRIRYRPPRLPRPRPRPHPQPRP, for which the “shrunken log2 fold change” value is -0.0957. To RRIRDRPPRLPRPRPRPGTLPRP belongs -0.00146; to RRIRHRPPRLPRPRPRPFCWPRP, 0.252; to RRIRYRPPRLPRPRPRPQHRPRP, -0.602. To RRIRQRPPRLPRPRPRPYVDPRP belongs -0.431; to RRIRERPPRLPRPRPRPKIEPRP, -0.151; to RRIRMRPPRLPRPRPRPKYMPRP, 0.00659. For the sequence RRIRHRPPRLPRPRPRPCGGPRP, the “shrunken log2 fold change” value was -0.0282.

As to RRIRHRPPRLPRPRPRPEDWPRP, the “shrunken log2 fold change” value stood at 0.83. Turning to RRIRTRPPRLPRPRPRPGWQPRP, the “shrunken log2 fold change” value stood at 0.174. For the sequence RRIRARPPRLPRPRPRPKQTPRP, the “shrunken log2 fold change” value was 0.453. For RRIRFRPPRLPRPRPRPSPTPRP, the “shrunken log2 fold change” value was 0.313.

Take RRIRLRPPRLPRPRPRPFGIPRP: the “shrunken log2 fold change” value was -0.255. For the sequence RRIRPRPPRLPRPRPRPWPWPRP, the “shrunken log2 fold change” value was determined as 0.0232. With RRIRPRPPRLPRPRPRPLCCPRP, the “shrunken log2 fold change” value is -0.105. RRIRWRPPRLPRPRPRPYTAPRP: the “shrunken log2 fold change” value is -0.611.

Take RRIRHRPPRLPRPRPRPSIGPRP: the “shrunken log2 fold change” value was -0.335. On to RRIRNRPPRLPRPRPRPDAVPRP, for which the “shrunken log2 fold change” value worked out at 0.0764.

As for RRIRYRPPRLPRPRPRPTCYPRP, the “shrunken log2 fold change” value is -0.582. For the sequence RRIRDRPPRLPRPRPRPFYVPRP, the “shrunken log2 fold change” value was -0.0754. As for RRIRIRPPRLPRPRPRPRNPPRP, the “shrunken log2 fold change” value was -0.0124. Take RRIRRRPPRLPRPRPRPHWRPRP: the “shrunken log2 fold change” value was determined as 0.0155. To RRIRVRPPRLPRPRPRPIPTPRP belongs 0.191; to RRIRSRPPRLPRPRPRPEGPPRP, 0.114. For the sequence RRIRQRPPRLPRPRPRPYIIPRP, the “shrunken log2 fold change” value is -0.332. Turning to RRIRERPPRLPRPRPRPMQHPRP, the “shrunken log2 fold change” value is -0.04. Consider RRIRYRPPRLPRPRPRPWMFPRP, for which the “shrunken log2 fold change” value is -0.273.

On to RRIRRRPPRLPRPRPRPMVVPRP, for which the “shrunken log2 fold change” value was determined as 0.00307. In the case of RRIRLRPPRLPRPRPRPLYPPRP, the “shrunken log2 fold change” value was -0.12. Take RRIRPRPPRLPRPRPRPVAKPRP: the “shrunken log2 fold change” value is 0.236. Consider RRIRVRPPRLPRPRPRPPYFPRP, for which the “shrunken log2 fold change” value was determined as 0.0499. With RRIRCRPPRLPRPRPRPSFFPRP, the “shrunken log2 fold change” value is -0.552.

In the case of RRIRWRPPRLPRPRPRPMDPPRP, the “shrunken log2 fold change” value is 0.0622.

For RRIRIRPPRLPRPRPRPGSYPRP, the “shrunken log2 fold change” value was -0.277. Regarding RRIRDRPPRLPRPRPRPPMNPRP, the “shrunken log2 fold change” value is -0.258.

As for RRIRYRPPRLPRPRPRPQIQPRP, the “shrunken log2 fold change” value is -0.473.

For the sequence RRIRTRPPRLPRPRPRPFTAPRP, the “shrunken log2 fold change” value was -0.473. Regarding RRIRRRPPRLPRPRPRPSMSPRP, the “shrunken log2 fold change” value was determined as 0.0591. Take RRIRWRPPRLPRPRPRPWNNPRP: the “shrunken log2 fold change” value was -0.77. With RRIRYRPPRLPRPRPRPWWYPRP the figure was -0.139; with RRIRNRPPRLPRPRPRPCLAPRP, -0.69. As for RRIRSRPPRLPRPRPRPWYLPRP, the “shrunken log2 fold change” value is -0.617. With RRIRHRPPRLPRPRPRPPCMPRP, the “shrunken log2 fold change” value is -0.245. For the sequence RRIRRRPPRLPRPRPRPWIFPRP, the “shrunken log2 fold change” value is 0.0818. In the case of RRIRVRPPRLPRPRPRPVIVPRP, the “shrunken log2 fold change” value was -0.349. As for RRIRGRPPRLPRPRPRPKCYPRP, the “shrunken log2 fold change” value was 0.107. Consider RRIRLRPPRLPRPRPRPPKRPRP, for which the “shrunken log2 fold change” value is 0.492. RRIRPRPPRLPRPRPRPSFGPRP: the “shrunken log2 fold change” value is -0.156. RRIRSRPPRLPRPRPRPAWMPRP: the “shrunken log2 fold change” value is -0.263.

Turning to RRIRSRPPRLPRPRPRPSFPPRP, the “shrunken log2 fold change” value was -0.557. For RRIRQRPPRLPRPRPRPVFTPRP, the “shrunken log2 fold change” value is -0.217. Turning to RRIRTRPPRLPRPRPRPRTNPRP, the “shrunken log2 fold change” value is -0.192. To RRIRKRPPRLPRPRPRPVGEPRP belongs 1.18; to RRIRLRPPRLPRPRPRPYNFPRP, -0.0404. With RRIRRRPPRLPRPRPRPCHAPRP, the “shrunken log2 fold change” value is -0.0577.

Consider RRIRWRPPRLPRPRPRPGKDPRP, for which the “shrunken log2 fold change” value was -0.222. With RRIRYRPPRLPRPRPRPISKPRP the figure was -0.562; with RRIRHRPPRLPRPRPRPIVNPRP, 0.114; with RRIRFRPPRLPRPRPRPFLAPRP, -0.486. As to RRIRWRPPRLPRPRPRPNSNPRP, the “shrunken log2 fold change” value was -0.583. With RRIRKRPPRLPRPRPRPQPNPRP the figure was 0.159; with RRIRCRPPRLPRPRPRPTWGPRP, 0.301. As for RRIRSRPPRLPRPRPRPTSPPRP, the “shrunken log2 fold change” value stood at 0.742.

RRIRRRPPRLPRPRPRPPELPRP: the “shrunken log2 fold change” value was -0.0467. For RRIRCRPPRLPRPRPRPHTRPRP, the “shrunken log2 fold change” value is -0.372. With RRIRRRPPRLPRPRPRPTSEPRP, the “shrunken log2 fold change” value was 0.372. With RRIRFRPPRLPRPRPRPGPDPRP the figure was 0.325; with RRIRSRPPRLPRPRPRPGIQPRP, 0.0642; with RRIRSRPPRLPRPRPRPENRPRP, -0.114. In the case of RRIRNRPPRLPRPRPRPGGYPRP, the “shrunken log2 fold change” value was -0.0538.

Regarding RRIRARPPRLPRPRPRPDKYPRP, the “shrunken log2 fold change” value came to 1.5. On to RRIRVRPPRLPRPRPRPHCNPRP, for which the “shrunken log2 fold change” value was -0.408. On to RRIRSRPPRLPRPRPRPYHCPRP, for which the “shrunken log2 fold change” value was -0.255.

For RRIRLRPPRLPRPRPRPDTYPRP, the “shrunken log2 fold change” value is -0.93. With RRIRIRPPRLPRPRPRPTWIPRP, the “shrunken log2 fold change” value is -0.415. For RRIRSRPPRLPRPRPRPTVPPRP, the “shrunken log2 fold change” value was 0.0372. Regarding RRIRHRPPRLPRPRPRPRSFPRP, the “shrunken log2 fold change” value was -0.0488.

RRIRGRPPRLPRPRPRPNQDPRP: the “shrunken log2 fold change” value is 0.0491.

Regarding RRIRMRPPRLPRPRPRPNNDPRP, the “shrunken log2 fold change” value is -0.0943. To RRIRHRPPRLPRPRPRPMFWPRP belongs 0.0114.
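Also: peptides expressed intracellularly from a pBAD plasmid library in pooled LB shake-flask culture, induced with 0.3% L-arabinose, DNA abundance read by NGS, three biological replicates, DESeq2 with apeglm shrinkage.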
